US20240400708A1

How the values were obtained:
[1] = target: feline FcRn complex (FcRn-α subunit and β-microglobulin), biotin labeled (feline); assay: SPR, pH 7.4
[2] = target: feline FcRn complex (FcRn-α subunit and β-microglobulin), biotin labeled (feline); assay: SPR, pH 6

Kd [1] [nM]	Kd [2] [nM]	Binder
17.2	0.793	feline IgG1a S428Y/L314K/S434Y (antibody, part only; not given: Variable domains, not shown: another chain or arm of the molecule) constant: ASTTAPSVFPLAPSCGTTSGATVALACLVLGYFPEPVTVSWNSGALTSGVHTFPAVLQASGLYSLSSMVTVPSSRWLSDTFTCNVAHPPSNTKVDKTVRKTDHPPGPKPCDCPKCPPPEMLGGPSIFIFPPKPKDTLSISRTPEVTCLVVDLGPDDSDVQITWFVDNTQVYTAKTSPREEQFNSTYRVVSVLPILHQDWKKGKEFKCKVNSKSLPSPIERTISKAKGQPHEPQVYVLPPAQEELSRNKVSVTCLIKSFHPPDIAVEWEITGQPEPENNYRTTPPQLDSDGTYFVYSKLSVDRSHWQRGNTYTCSVYHEALHYHHTQKSLTQSPGK
26.7	3.9	feline IgG1a S252H/D312P (antibody, part only; not given: variable domains, not shown: another chain or arm of the molecule; small tags and cut ends) constant: ASTTAPSVFPLAPSCGTTSGATVALACLVLGYFPEPVTVSWNSGALTSGVHTFPAVLQASGLYSLSSMVTVPSSRWLSDTFTCNVAHPPSNTKVDKTVRKTDHPPGPKPCDCPKCPPPEMLGGPSIFIFPPKPKDTLHISRTPEVTCLVVDLGPDDSDVQITWFVDNTQVYTAKTSPREEQFNSTYRVVSVLPILHQPWLKGKEFKCKVNSKSLPSPIERTISKAKGQPHEPQVYVLPPAQEELSRNKVSVTCLIKSFHPPDIAVEWEITGQPEPENNYRTTPPQLDSDGTYFVYSKLSVDRSHWQRGNTYTCSVSHEALHSHHTQKSLTQSPGK
2760	34.1	feline IgG1a S428Y/D312P (antibody, part only; not given: Variable domains, not shown: another chain or arm of the molecule; small tags and cut ends) constant: ASTTAPSVFPLAPSCGTTSGATVALACLVLGYFPEPVTVSWNSGALTSGVHTFPAVLQASGLYSLSSMVTVPSSRWLSDTFTCNVAHPPSNTKVDKTVRKTDHPPGPKPCDCPKCPPPEMLGGPSIFIFPPKPKDTLSISRTPEVTCLVVDLGPDDSDVQITWFVDNTQVYTAKTSPREEQFNSTYRVVSVLPILHQPWLKGKEFKCKVNSKSLPSPIERTISKAKGQPHEPQVYVLPPAQEELSRNKVSVTCLIKSFHPPDIAVEWEITGQPEPENNYRTTPPQLDSDGTYFVYSKLSVDRSHWQRGNTYTCSVYHEALHSHHTQKSLTQSPGK
311	7.24	feline IgG1a D312P/L314K (antibody, part only; not given: Variable domains, not shown: another chain or arm of the molecule) constant: ASTTAPSVFPLAPSCGTTSGATVALACLVLGYFPEPVTVSWNSGALTSGVHTFPAVLQASGLYSLSSMVTVPSSRWLSDTFTCNVAHPPSNTKVDKTVRKTDHPPGPKPCDCPKCPPPEMLGGPSIFIFPPKPKDTLSISRTPEVTCLVVDLGPDDSDVQITWFVDNTQVYTAKTSPREEQFNSTYRVVSVLPILHQPWKKGKEFKCKVNSKSLPSPIERTISKAKGQPHEPQVYVLPPAQEELSRNKVSVTCLIKSFHPPDIAVEWEITGQPEPENNYRTTPPQLDSDGTYFVYSKLSVDRSHWQRGNTYTCSVSHEALHSHHTQKSLTQSPGK
864	1.48	feline IgG1a S428Y/D312P/S434Y (antibody, part only; not given: Variable domains, not shown: another chain or arm of the molecule; small tags and cut ends) constant: ASTTAPSVFPLAPSCGTTSGATVALACLVLGYFPEPVTVSWNSGALTSGVHTFPAVLQASGLYSLSSMVTVPSSRWLSDTFTCNVAHPPSNTKVDKTVRKTDHPPGPKPCDCPKCPPPEMLGGPSIFIFPPKPKDTLSISRTPEVTCLVVDLGPDDSDVQITWFVDNTQVYTAKTSPREEQFNSTYRVVSVLPILHQPWLKGKEFKCKVNSKSLPSPIERTISKAKGQPHEPQVYVLPPAQEELSRNKVSVTCLIKSFHPPDIAVEWEITGQPEPENNYRTTPPQLDSDGTYFVYSKLSVDRSHWQRGNTYTCSVYHEALHYHHTQKSLTQSPGK
2.26	0.0221	feline IgG1a S252Y/D312P/S434Y (antibody, part only; not given: Variable domains, not shown: another chain or arm of the molecule; small tags and cut ends) constant: ASTTAPSVFPLAPSCGTTSGATVALACLVLGYFPEPVTVSWNSGALTSGVHTFPAVLQASGLYSLSSMVTVPSSRWLSDTFTCNVAHPPSNTKVDKTVRKTDHPPGPKPCDCPKCPPPEMLGGPSIFIFPPKPKDTLYISRTPEVTCLVVDLGPDDSDVQITWFVDNTQVYTAKTSPREEQFNSTYRVVSVLPILHQPWLKGKEFKCKVNSKSLPSPIERTISKAKGQPHEPQVYVLPPAQEELSRNKVSVTCLIKSFHPPDIAVEWEITGQPEPENNYRTTPPQLDSDGTYFVYSKLSVDRSHWQRGNTYTCSVSHEALHYHHTQKSLTQSPGK
4190	26	feline IgG1a S428Y/Q311W/D312P (antibody, part only; not given: Variable domains, not shown: another chain or arm of the molecule) constant: ASTTAPSVFPLAPSCGTTSGATVALACLVLGYFPEPVTVSWNSGALTSGVHTFPAVLQASGLYSLSSMVTVPSSRWLSDTFTCNVAHPPSNTKVDKTVRKTDHPPGPKPCDCPKCPPPEMLGGPSIFIFPPKPKDTLSISRTPEVTCLVVDLGPDDSDVQITWFVDNTQVYTAKTSPREEQFNSTYRVVSVLPILHWPWLKGKEFKCKVNSKSLPSPIERTISKAKGQPHEPQVYVLPPAQEELSRNKVSVTCLIKSFHPPDIAVEWEITGQPEPENNYRTTPPQLDSDGTYFVYSKLSVDRSHWQRGNTYTCSVYHEALHSHHTQKSLTQSPGK
348	10.1	feline IgG1a S428Y/Q311W/L314K (antibody, part only; not given: Variable domains, not shown: another chain or arm of the molecule) constant: ASTTAPSVFPLAPSCGTTSGATVALACLVLGYFPEPVTVSWNSGALTSGVHTFPAVLQASGLYSLSSMVTVPSSRWLSDTFTCNVAHPPSNTKVDKTVRKTDHPPGPKPCDCPKCPPPEMLGGPSIFIFPPKPKDTLSISRTPEVTCLVVDLGPDDSDVQITWFVDNTQVYTAKTSPREEQFNSTYRVVSVLPILHWDWKKGKEFKCKVNSKSLPSPIERTISKAKGQPHEPQVYVLPPAQEELSRNKVSVTCLIKSFHPPDIAVEWEITGQPEPENNYRTTPPQLDSDGTYFVYSKLSVDRSHWQRGNTYTCSVYHEALHSHHTQKSLTQSPGK
235	4.65	feline IgG1a S428Y/S434Y (antibody, part only; not given: Variable domains, not shown: another chain or arm of the molecule) constant: ASTTAPSVFPLAPSCGTTSGATVALACLVLGYFPEPVTVSWNSGALTSGVHTFPAVLQASGLYSLSSMVTVPSSRWLSDTFTCNVAHPPSNTKVDKTVRKTDHPPGPKPCDCPKCPPPEMLGGPSIFIFPPKPKDTLSISRTPEVTCLVVDLGPDDSDVQITWFVDNTQVYTAKTSPREEQFNSTYRVVSVLPILHQDWLKGKEFKCKVNSKSLPSPIERTISKAKGQPHEPQVYVLPPAQEELSRNKVSVTCLIKSFHPPDIAVEWEITGQPEPENNYRTTPPQLDSDGTYFVYSKLSVDRSHWQRGNTYTCSVYHEALHYHHTQKSLTQSPGK
398	3.59	feline IgG1a S252F/S434R (antibody, part only; not given: Variable domains, not shown: another chain or arm of the molecule; small tags and cut ends) constant: ASTTAPSVFPLAPSCGTTSGATVALACLVLGYFPEPVTVSWNSGALTSGVHTFPAVLQASGLYSLSSMVTVPSSRWLSDTFTCNVAHPPSNTKVDKTVRKTDHPPGPKPCDCPKCPPPEMLGGPSIFIFPPKPKDTLFISRTPEVTCLVVDLGPDDSDVQITWFVDNTQVYTAKTSPREEQFNSTYRVVSVLPILHQDWLKGKEFKCKVNSKSLPSPIERTISKAKGQPHEPQVYVLPPAQEELSRNKVSVTCLIKSFHPPDIAVEWEITGQPEPENNYRTTPPQLDSDGTYFVYSKLSVDRSHWQRGNTYTCSVSHEALHRHHTQKSLTQSPGK
2.85	0.0496	feline IgG1a S252Y/L314K/S434Y (antibody, part only; not given: Variable domains, not shown: another chain or arm of the molecule; small tags and cut ends) constant: ASTTAPSVFPLAPSCGTTSGATVALACLVLGYFPEPVTVSWNSGALTSGVHTFPAVLQASGLYSLSSMVTVPSSRWLSDTFTCNVAHPPSNTKVDKTVRKTDHPPGPKPCDCPKCPPPEMLGGPSIFIFPPKPKDTLYISRTPEVTCLVVDLGPDDSDVQITWFVDNTQVYTAKTSPREEQFNSTYRVVSVLPILHQDWKKGKEFKCKVNSKSLPSPIERTISKAKGQPHEPQVYVLPPAQEELSRNKVSVTCLIKSFHPPDIAVEWEITGQPEPENNYRTTPPQLDSDGTYFVYSKLSVDRSHWQRGNTYTCSVSHEALHYHHTQKSLTQSPGK
1510	3.8	feline IgG1a S428Y/Q311W/S434Y (antibody, part only; not given: Variable domains, not shown: another chain or arm of the molecule; small tags and cut ends) constant: ASTTAPSVFPLAPSCGTTSGATVALACLVLGYFPEPVTVSWNSGALTSGVHTFPAVLQASGLYSLSSMVTVPSSRWLSDTFTCNVAHPPSNTKVDKTVRKTDHPPGPKPCDCPKCPPPEMLGGPSIFIFPPKPKDTLSISRTPEVTCLVVDLGPDDSDVQITWFVDNTQVYTAKTSPREEQFNSTYRVVSVLPILHWDWLKGKEFKCKVNSKSLPSPIERTISKAKGQPHEPQVYVLPPAQEELSRNKVSVTCLIKSFHPPDIAVEWEITGQPEPENNYRTTPPQLDSDGTYFVYSKLSVDRSHWQRGNTYTCSVYHEALHYHHTQKSLTQSPGK
7630	12.7	feline IgG1a S428Y/Q311W (antibody, part only; not given: Variable domains, not shown: another chain or arm of the molecule) constant: ASTTAPSVFPLAPSCGTTSGATVALACLVLGYFPEPVTVSWNSGALTSGVHTFPAVLQASGLYSLSSMVTVPSSRWLSDTFTCNVAHPPSNTKVDKTVRKTDHPPGPKPCDCPKCPPPEMLGGPSIFIFPPKPKDTLSISRTPEVTCLVVDLGPDDSDVQITWFVDNTQVYTAKTSPREEQFNSTYRVVSVLPILHWDWLKGKEFKCKVNSKSLPSPIERTISKAKGQPHEPQVYVLPPAQEELSRNKVSVTCLIKSFHPPDIAVEWEITGQPEPENNYRTTPPQLDSDGTYFVYSKLSVDRSHWQRGNTYTCSVYHEALHSHHTQKSLTQSPGK
10900	4.12	feline IgG1a S252Y/S434R (antibody, part only; not given: Variable domains, not shown: another chain or arm of the molecule; small tags and cut ends) constant: ASTTAPSVFPLAPSCGTTSGATVALACLVLGYFPEPVTVSWNSGALTSGVHTFPAVLQASGLYSLSSMVTVPSSRWLSDTFTCNVAHPPSNTKVDKTVRKTDHPPGPKPCDCPKCPPPEMLGGPSIFIFPPKPKDTLYISRTPEVTCLVVDLGPDDSDVQITWFVDNTQVYTAKTSPREEQFNSTYRVVSVLPILHQDWLKGKEFKCKVNSKSLPSPIERTISKAKGQPHEPQVYVLPPAQEELSRNKVSVTCLIKSFHPPDIAVEWEITGQPEPENNYRTTPPQLDSDGTYFVYSKLSVDRSHWQRGNTYTCSVSHEALHRHHTQKSLTQSPGK
8180	6.95	feline IgG1a D312A (antibody, part only; not given: Variable domains, not shown: another chain or arm of the molecule; small tags and cut ends) constant: ASTTAPSVFPLAPSCGTTSGATVALACLVLGYFPEPVTVSWNSGALTSGVHTFPAVLQASGLYSLSSMVTVPSSRWLSDTFTCNVAHPPSNTKVDKTVRKTDHPPGPKPCDCPKCPPPEMLGGPSIFIFPPKPKDTLSISRTPEVTCLVVDLGPDDSDVQITWFVDNTQVYTAKTSPREEQFNSTYRVVSVLPILHQAWLKGKEFKCKVNSKSLPSPIERTISKAKGQPHEPQVYVLPPAQEELSRNKVSVTCLIKSFHPPDIAVEWEITGQPEPENNYRTTPPQLDSDGTYFVYSKLSVDRSHWQRGNTYTCSVSHEALHSHHTQKSLTQSPGK
